Numbering of substitutions follows the chain as printed.
B1: Ab15 Fab (Fab, V domains shown)
VH: EVQLQQSGPELVKPGASVKISCKASGYSFTGYYMNWVKQSPEKSLEWIGEINPNFGGTTYNQKFKAKATLTVDKSSSTAYMQLKSLTSEDSAVYYCARYYGNLYAMDYWGQGTSVTVS
VL: DILMTQSPSSMSVSLGDTVSITCHASQGISSNIGWLQQKPGKSFKGLIYHGTNLEDGVPSRFSGSGSGAAYSLTISSLESEDFADYYCVQYTHFPYTFGGGTKLEIK
B2: Ab19 Fab (Fab, V domains shown)
VH: QVQLQQSGAELARPGASVKLSCKASGYPFTSYGINWVKQRTGQGLEWIGEIYPRIGNTYYNEKFKGKATLTADKSSSTAYMEFRSLTSEDSAVYFCARSWNSNYGEYYFDYWGQGTTLTVS
VL: DIVMTQSHKFMSTSIGDRVSITCKASHDVSTAVAWYQQKPGQSPKLLIYWASTRHTGVPDRFTGSGSGTDYTLTIRSVQAEDLALYYCQQHYSTPYTFGGGTKLEIK
B3: Ab20 Fab (Fab, V domains shown)
VH: EVQLQQSGPELVKPGASVKISCKASGFSFTGYSMNWMKQSPEKSLEWIGEINPTTGGTTYNQKFKAKATLTVDKSSSTAYIQLKSLTSEDSAVYYCARGRADYWGQGTTLTVSS
VL: DIVLTQSPASLAVSLGQRATISCRASESVEYYGTGLVQWFQQKPGQPPKLLIYAASNVESGVPARFSGSGSGTDFSLNIHSVEEDDIAMYFCHQSRKLPWTFGGGTKLEIK
B4: Ab16 Fab (Fab, V domains shown)
VH: B1 VH with T30N, G31N, F55S, G57Y, T59S, K65R, S77T, Y100F, Y104F, Y108F
VL: B1 VL with S30G, H50L, A70D, T92V, H93Q
B5: Ab17 Fab (Fab, V domains shown)
VH: EVQLQQSGPELVKPGASVKISCKASGYSFTDYYMNWVKQSPEKSLEWIGEINPNTGGTTYNQKFKAKATLTVDKSSSTAYMQLKSLTSEDSAVYYCARYYGNLYAMDYWGQGTSVTVSS
VL: B1 VL with A70D, T92V, H93Q, F98L

Biological target: T1, SARS-2 RBM^hg RBD construct (SARS-2 RBD with engineered glycans at 448, 475, 494 and 501) (SARS-CoV-2 (engineered), UniProt P0DTC2 319-529)
Assay: BLI with recombinant Fabs, drawn table of KD (µM)

Binder | Kd [nM]
B1 | 1300
B2 | > 100000
B3 | > 100000
B4 | 160
B5 | 100

Biological target: T1, SARS-2 RBM^hg RBD construct (SARS-2 RBD …)
Assay: BLI with recombinant Fabs, drawn table of KD (µM), column ΔRBM

Binder | Kd [µM]
B1 | 1.3
B2 | > 100
B3 | > 100
